Data taken from the supplement of paper PMC12338614.
± gives the uncertainty stated by the source.

B1: library; numbered along this chain (parent)
chain: MEVVDPQQLGMFTEGELMSVGMDTFIHRIDSTEVIYQPRRKRAKLIGKYLMGDLLGEGSYGKVKEVLDSETLCRRAVKILKKKKLRRIPNGEANVKKEIQLLRRLRHKNVIQLVDVLYNEEKQKMYMVMEYCVCGMQEMLDSVPEKRFPVCQAHGYFCQLIDGLEYLHSQGIVHKDIKPGNLLLTTGGTLKISDLGVAEALHPFAADDTCRTSQGSPAFQPPEIANGLDTFSGFKVDIWSAGVTLYNITTGLYPFEGDNIYKLFENIGKGSYAIPGDCGPPLSDLLKGMLEYEPAKRFSIRQIRQHSWFRKKHPPAEAPVPIPPSPDTKDRWRSMTVVPYLEDLHGADEDEDLFDIEDDIIYTQDFTVPGQVPEEEASHNGQRRGLPKAVCMNGTEAAQLSTKSRAEGRAPNPARKACSASSKIRRLSACKQQ

Variants of: B1
Assay: STK11 functional score (HeLa growth suppression), rescaled enrichment; synonymous median = 1, nonsense median = 0 (normalised score)
Conditions: with HeLa; variant type: missense
How it was run: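 The functional score takes the post/pre-selection log ratio, corrects it to wild type, rescales it to synonymous and nonsense medians, and merges it over codons and replicate transfections, with error from bootstrapping. Counts came from tiled gDNA amplicons sequenced on NextSeq (~2 million reads per tile). The libraries were POPCode codon-randomised, codon-optimised STK11 integrated by Bxb1 at an AAVS1 landing pad in HeLa, three regions with three transfections each.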

Variant | STK11 functional score
G233D | 1.56 ± 0.24
V63M | 0.802 ± 0.23
G270A | 0.849 ± 0.32
L182E | -0.122 ± 0.31
A410C | 1.33 ± 0.13
A347P | 1.21 ± 0.28
K178W | 0.413 ± 0.089
K83W | 1.53 ± 0.11
Y340D | 0.511 ± 0.17
I360N | 1.11 ± 0.67
T363R | 1.14 ± 0.24
A429Q | 1.56 ± 0.36
G21A | 1.39 ± 0.38
F366M | 1.48 ± 0.27
K81V | 0.987 ± 0.11
V4T | 1.06 ± 0.15
C134S | 1.49 ± 0.081
I303V | 1.43 ± 0.25
Q214H | 1.39 ± 0.53
L344C | 1.12 ± 0.45
Y246I | 1.13 ± 0.095
V110I | 0.703 ± 0.64
F255S | 1.14 ± 0.19
P254A | -0.109 ± 0.13

Variant | STK11 functional score
N393T | 1.48 ± 0.36
A198P | 0.974 ± 0.23
S422R | 1.47 ± 0.19
L182I | 1.56 ± 0.16
G381V | 0.684 ± 0.15
I172S | 0.549 ± 0.27
H306I | 0.83 ± 0.16
Q382D | 1.47 ± 0.29
P222L | 0.281 ± 0.091
L190G | 0.073 ± 0.17
W332V | 1.59 ± 0.27
S307A | 1.49 ± 0.15
K311S | 0.915 ± 0.3
E265C | 1.67 ± 0.28
Y166K | 1.56 ± 0.29
N247L | 1.17 ± 0.15
E145A | 0.952 ± 0.13
K64V | 1.38 ± 0.19
P179D | -0.213 ± 0.11
I29Y | 1.12 ± 0.28
I111T | 0.687 ± 0.27
E256W | 1.65 ± 0.13
A218H | 0.853 ± 0.69
K97E | 1.42 ± 0.45

Variant | STK11 functional score
Q305F | 1.51 ± 0.2
E14P | 1.65 ± 0.34
R425Y | 1.54 ± 0.29
A318M | 0.577 ± 0.31
L105A | 1.32 ± 0.18
C278T | 1.22 ± 0.19
G346R | 1.56 ± 0.26
I274N | 1.27 ± 0.51
N266R | 1.3 ± 0.14
L54T | 1.47 ± 0.23
G276R | 1.35 ± 0.18
P324L | 1.37 ± 0.19
I303D | -0.579 ± 0.078
Q371H | 1.15 ± 0.68
G385R | 1.13 ± 0.32
E130K | 1.36 ± 0.14
G171C | 0.479 ± 0.091
T336Y | 1.17 ± 0.15
T328P | 1.57 ± 0.16
R86M | -0.183 ± 0.08
G276E | 1.57 ± 0.32
P281K | 1.26 ± 0.79
E92L | 1.01 ± 0.15
Y126C | 0.357 ± 0.08

Variant | STK11 functional score
R104I | 1.23 ± 0.25
K403V | 0.598 ± 0.14
Y156G | 0.044 ± 0.076
A417S | 1.25 ± 0.36
A397E | 1.44 ± 0.2
H313P | 0.624 ± 0.47
A318T | 1.17 ± 0.67
M136E | 0.000415 ± 0.084
Q170G | 1.37 ± 0.37
K48W | 0.798 ± 0.087
L45G | 1.25 ± 0.18
L427F | 1.31 ± 0.23
F219R | 0.1 ± 0.098
Q159A | 1.13 ± 0.21
V4L | 0.909 ± 0.33
P387K | 1 ± 0.31
A398K | 1.53 ± 0.22
F12L | 1.23 ± 0.68
Q364Y | 1.53 ± 0.17
V320L | 0.723 ± 0.1
N412E | 1.52 ± 0.17
N380R | 1.56 ± 0.24
Q214S | 0.787 ± 0.1
R405S | 1.54 ± 0.37

Variant | STK11 functional score
V114C | 0.202 ± 0.086
T24R | 0.782 ± 0.14
N181H | 0.134 ± 0.14
N393S | 1.09 ± 0.52
C430V | 1.03 ± 0.62
E145G | 0.981 ± 0.099
K312D | 1.49 ± 0.22
P314E | 1.54 ± 0.15
T336S | 1 ± 0.49
K78V | -0.0951 ± 0.078
R333F | 0.85 ± 0.49
D207V | 1.09 ± 0.41
N412C | 1.11 ± 0.1
Y36L | 1.03 ± 0.23
K262V | 1.29 ± 0.3
Q305T | 1.5 ± 0.24
I161P | 0.918 ± 0.66
A295W | 1.36 ± 0.2
L282K | 0.565 ± 0.1
I300M | 0.944 ± 0.21
G381S | 1.36 ± 0.28
F255D | 0.348 ± 0.1
D284W | 0.576 ± 0.1
V197L | 1.05 ± 0.21

Variant | STK11 functional score
R383Y | 1.25 ± 0.54
K83V | 1.05 ± 0.48
S169A | 1.09 ± 0.49
F354T | 0.37 ± 0.26
K312A | 1.25 ± 0.3
I46W | 0.0413 ± 0.094
P326Y | 0.263 ± 0.093
L245F | 0.00828 ± 0.095
A218L | 0.905 ± 0.11
T71Q | 1.58 ± 0.14
T402N | 0.935 ± 0.33
A377K | 1.63 ± 0.28
I192W | 0.0777 ± 0.23
P222A | 0.83 ± 0.2
D53E | 0.779 ± 0.31
T212Q | 1.65 ± 0.19
I267W | 0.777 ± 0.086
N109T | 0.928 ± 0.11
T395G | 1.49 ± 0.32
T363N | 1.03 ± 0.33
L67A | 0.924 ± 0.77
H313A | 1.33 ± 0.14
M129V | 0.303 ± 0.084
L353N | 1.56 ± 0.21

Variant | STK11 functional score
V3I | 1.06 ± 0.43
P280V | 1.41 ± 0.096
C73A | 1.69 ± 0.36
T209P | 1.27 ± 0.3
M136H | -0.214 ± 0.081
P321G | 1.01 ± 0.14
S401G | 0.991 ± 0.7
P315T | 1.2 ± 0.42
A206R | 1.64 ± 0.13
E357I | 1.56 ± 0.26
I424Q | 1.55 ± 0.14
I267A | 1 ± 0.34
N90W | 0.707 ± 0.4
K96Q | 0.724 ± 0.15
F231G | 1.17 ± 0.26
R425N | 1.62 ± 0.25
I361V | 1.6 ± 0.24
C151M | 0.331 ± 0.57
C134R | 1.52 ± 0.09
G394K | 1.6 ± 0.28
F366D | 1.6 ± 0.14
D176A | -0.0851 ± 0.1
R331D | 1.24 ± 0.36
